Results on two molecules are retold here after EP4806913A1 (Vaxcell-Bio Co., Ltd., dated 2025).

The experiment concerns the target T1, recombinant EphA2 protein (R&D systems) (human, UniProt P29317 25-534, limits assumed).
T1 construct: Bought protein coated on the ELISA plate at 1 ug/mL; also called hEphA2; human antigen EphA2
The experiment is described as follows: ELISA: recombinant EphA2 coated at 1 ug/mL, monobody-amh diluted twofold from 500 nM, detected with HRP anti-c-Myc antibody, OD 450 nm. Background: ELISA stands for enzyme-linked immunosorbent assay.

T1 sequence (P29317 25-534 limits assumed): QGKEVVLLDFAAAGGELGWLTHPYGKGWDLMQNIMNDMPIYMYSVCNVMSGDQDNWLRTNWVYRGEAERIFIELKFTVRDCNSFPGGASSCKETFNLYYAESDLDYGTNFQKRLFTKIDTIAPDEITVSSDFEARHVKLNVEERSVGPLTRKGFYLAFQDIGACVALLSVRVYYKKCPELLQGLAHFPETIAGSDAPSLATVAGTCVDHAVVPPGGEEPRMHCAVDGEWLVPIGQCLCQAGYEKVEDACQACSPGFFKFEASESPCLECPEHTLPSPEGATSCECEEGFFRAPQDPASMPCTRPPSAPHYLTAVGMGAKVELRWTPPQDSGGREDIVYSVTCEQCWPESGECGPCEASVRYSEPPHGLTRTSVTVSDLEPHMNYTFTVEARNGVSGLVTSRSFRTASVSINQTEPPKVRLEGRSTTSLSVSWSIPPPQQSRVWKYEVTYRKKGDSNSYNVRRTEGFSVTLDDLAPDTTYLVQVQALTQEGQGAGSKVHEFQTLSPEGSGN

B1: E1-amh (E1 monobody with C-terminal AviTag-Myc-6xHis tag) (designed binder)
chain: VSDVPRDLEVVAATPTSLLISWYYPFCAFYYRITYGETGGNSPVQEFTVPRPSDTATISGLKPGVDYTITVYAVTCLGSYSRPISINYRT
notes: Expressed in E. coli BL21(DE3) from pETamh and purified by IMAC and size exclusion; also called non-hydrophilic monobody(E1); E1 monomer; not shown: amh tag (AviTag-Myc-6xHis) of the pETamh vector linked to the C-terminus
With B1, the binding result is reported as “binds”.

B2: hpE1-amh (hydrophilic E1 monobody with C-terminal AviTag-Myc-6xHis tag) (designed binder)
chain: SSDSPRNLEVTNATPNSLTISWYYPFCAFYYRITYGETGGNSPSQEFTVPRPSDTATISGLKPGQDYTITVYAVTCLGSYSRPISINYRTEIDKPSQ
notes: Expressed in E. coli BL21(DE3) from pETamh and purified by IMAC and size exclusion; The gene was cloned at an NdeI site that includes the ATG start codon; also called hpE1 monobody; hydrophilic monobody(hpE1); not shown: amh tag (AviTag-Myc-6xHis) of the pETamh vector linked to the C-terminus
With B2, the binding result is “binds”.
